Measured values taken from the supplement of paper PMC7877785.
± gives the uncertainty stated by the source.

Assay: self-splicing fitness, log relative to wild type (ln ratio); higher = more splicing; Tetrahymena group I intron in knt gene, E. coli kanamycin selection, DiMSum; sequences stand for … in CUCUCU…GGAGGGAAAAGUUAUCAGGCAUGCACCUGGUAGCUAGUCUUUAAACCAAUAGAUUGCAUCGGUUUAAAAGGCAAGACCGUCAAAUUGCGGGAAAGGGGUCAACAGCCGUUCAGUACCAAGUCUCAGGGGAAACUUUGAGAUGGCCUUGCAAAGGGUAUGGUAAUAAGCUGACGGACAUGGUCCUAACCACGCAGCCAAGUCCUAAGUCAACAGAUCUUCUGUUGAUAUGGAUGCAGUUCACAGACUAAAUGUCGGUCGGGGAAGAUGUAUUCUUCUCAUAAGAUAUAGUCGGACCUCUCCUUAAUGGGAGCUAGCGGAUGAAGUGAUGCAACACUGGAGCCGCUGGGAACUAAUUUGUAUGCGAAAGUAUAUUGAUUAGUUUUGGAGUACUCGUGGUCG
Outline: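 The eight P1ex-region nucleotides of an intron in the knt kanamycin-resistance gene on pET-22b(+) were all randomised and the library put into E. coli BL21(DE3). Six replicate transformations were grown overnight at 37°C or 30°C on LB agar with or without 25 μg/mL kanamycin, together with 100 μg/mL carbenicillin, 50 μM IPTG and 0.2% rhamnose. Colonies were pooled and amplicon-sequenced on an Illumina HiSeq 2500. Fitness from DiMSum is the error-weighted combination of wild-type-normalised replicate fold changes, kanamycin over none.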

Sequence | self-splicing fitness (ln) (30 °C) | self-splicing fitness (ln) (37 °C)
CGUCAGCAAUAUUACGCGCC | -1.58 ± 0.16 | -0.529 ± 0.29
CACGAGCAAUAUUACGGUUG | -3.57 ± 0.15 | -1.6 ± 0.12
GGAGAGCAAUAUUACGGGAC | -2.46 ± 0.23 | -0.231 ± 0.32
GUUGAGCAAUAUUACGUUGC | -2.03 ± 0.42 | 
UAGGAGCAAUAUUACGCCAU | -3.74 ± 0.43 | -2.72 ± 0.48
AUGUAGCAAUAUUACGCGCU | -0.77 ± 0.14 | -0.00271 ± 0.15
GAUCAGCAAUAUUACGCCAG | -3.32 ± 0.3 | -1.93 ± 0.31
CACAAGCAAUAUUACGAUGA | -2.99 ± 0.11 | -1.21 ± 0.09
CCCCAGCAAUAUUACGGGAG | -3.08 ± 0.17 | -2.61 ± 0.18
UCCGAGCAAUAUUACGAAAG | -3.3 ± 0.33 | -2.65 ± 0.32
ACUUAGCAAUAUUACGCGGG | -3.38 ± 0.27 | -2.75 ± 0.2
AACAAGCAAUAUUACGGGCC | -2.99 ± 0.25 | 0.104 ± 0.19
ACAGAGCAAUAUUACGGUUA | -2.77 ± 0.21 | -3.05 ± 0.33
CCUUAGCAAUAUUACGUAGA | -4.13 ± 0.34 | -0.769 ± 0.17
AGAUAGCAAUAUUACGUUUG | -3.06 ± 0.23 | -1.21 ± 0.17
CAUAAGCAAUAUUACGGUAA | -3.92 ± 0.46 | -2.77 ± 0.29
CCGGAGCAAUAUUACGGUCU | -2.42 ± 0.22 | -2.54 ± 0.38
CCAUAGCAAUAUUACGUUAC | -2.14 ± 0.17 | -3.54 ± 0.47
UCGUAGCAAUAUUACGACGU | -3.04 ± 0.28 | -1.58 ± 0.17
GUCUAGCAAUAUUACGAAGU | -1.23 ± 0.19 | -0.107 ± 0.14
GCGAAGCAAUAUUACGCGUA | -2.03 ± 0.16 | -0.565 ± 0.13
GGCGAGCAAUAUUACGCCUG | -1.97 ± 0.43 | 
AGAAAGCAAUAUUACGUUAG | -2.91 ± 0.19 | -2.69 ± 0.18
ACACAGCAAUAUUACGUCAG | -3.58 ± 0.14 | -1.67 ± 0.12
AGAAAGCAAUAUUACGGUUU | -0.927 ± 0.068 | -0.0576 ± 0.082

Sequence | self-splicing fitness (ln) (30 °C) | self-splicing fitness (ln) (37 °C)
UUACAGCAAUAUUACGGAGU | -4.03 ± 0.29 | -2.7 ± 0.22
CGAUAGCAAUAUUACGAGUU | -3.61 ± 0.24 | -2.28 ± 0.23
UCCCAGCAAUAUUACGUAGC | -2.68 ± 0.12 | -2.19 ± 0.16
UAGUAGCAAUAUUACGCCGU | -2.58 ± 0.24 | -2.23 ± 0.3
CUCCAGCAAUAUUACGACCU | -3.4 ± 0.32 | 
ACGGAGCAAUAUUACGUGGC | -4.63 ± 0.42 | 
AUCCAGCAAUAUUACGGGCA | -0.0628 ± 0.073 | -0.507 ± 0.083
CCAAAGCAAUAUUACGUAGC | -3.81 ± 0.16 | -2.48 ± 0.16
CACCAGCAAUAUUACGUGAA | -4.03 ± 0.14 | -0.875 ± 0.096
CCGUAGCAAUAUUACGUAGA | -3.28 ± 0.22 | -1.41 ± 0.13
GGGUAGCAAUAUUACGCAUG | -1.68 ± 0.18 | -2.73 ± 0.32
CCCAAGCAAUAUUACGGUCU | -4.2 ± 0.2 | -2.64 ± 0.14
UAGGAGCAAUAUUACGCUAA |  | -1.57 ± 0.41
UGGGAGCAAUAUUACGCUUC | -1.91 ± 0.36 | 
GCAUAGCAAUAUUACGCACA | -0.886 ± 0.11 | 0.000212 ± 0.091
CAGCAGCAAUAUUACGGUAG | -0.155 ± 0.087 | 0.0584 ± 0.11
UCAGAGCAAUAUUACGUAGU | -3.58 ± 0.43 | -2.88 ± 0.35
CACAAGCAAUAUUACGUAUG | -2.55 ± 0.095 | -1.08 ± 0.085
GGUUAGCAAUAUUACGAUGU | -0.65 ± 0.14 | -0.087 ± 0.15
AGUUAGCAAUAUUACGUGGU | -3.34 ± 0.15 | -3.35 ± 0.23
GCUAAGCAAUAUUACGUCUC | -0.757 ± 0.066 | -0.164 ± 0.072
GACGAGCAAUAUUACGUCUG | -3.64 ± 0.22 | -2.53 ± 0.2
UAGCAGCAAUAUUACGGAUA | -0.783 ± 0.081 | -0.203 ± 0.1
AGCAAGCAAUAUUACGUCUA | -0.673 ± 0.062 | -0.456 ± 0.08
